The record followed here is the DeepSol protein solubility set.

A short description of this data set: soluble on expression in E. coli; label from the status in PepcDB or PDB records.
For the sequence “MGSDKIHHHHHHMMAYLVFLGPPGAGKGTYAKRLQEITGIPHISTGDIFRDIVKKENDELGKKIKEIMERGELVPDELVNEVVKRRLSEKDCERGFILDGYPRTVAQAEFLDGFLKTQNKELTAAVLFEVPEEVVVQRLTARRICPKCGRIYNLISLPPKEDELCDDCKVKLVQREDDKEETVRHRYKVYLEKTQPVIDYYDKKGILKRVDGTIGIDNVIAEVLKIIGWSDK”, the “soluble on expression in E. coli” value is listed as “not soluble”. Take “MLGSLAAEKRSVFQTSCCVRYKGCMLGVGPTVWGVVWGLGCTVEARGLRKRFGGRTAVAGVSFSVGDGERACIMGPNGSGKTTLLRMVSGVLRPSGGSVRVCGYDVWGDGWREARGLIGFAPQDPPMARRMTGAEYITVVGGLLGLSPGVARREARRVLEMLGFEDVLGRVVARLSGGQRRALGIALALASNPEVVVLDEPGSGLDVRARESLWASLRKAFKGRTVLFSSHDPQEAEAESDRVLIMHRGRLAAWGKPRELIQRYAPKPRVRVWADRAPDGLEPVHTGPGFSDYLIEAPGDVARIASAYSGAGILVERIEVLKPSLREVFFAVTGEEMD”: the “soluble on expression in E. coli” value is recorded as “soluble”. In the case of “MGSDKIHHHHHHMSKSEQISHMTDVMAKFVGYTGKVLPDDVTAKLEDLHKKETSKLADVIFTTMIENQRLAKELDRPSCQDTGVIQFLVECGTNFPLIGELEALLREAVIKATVDSPLRHNSVETFDEYNTGKNVGKGTPTVFWEIVPNSDQCSIYTYMAGGGCSLPGKAMVLMPGAGYEGVTRFVLDVMTSYGLNACPPLLVGVGVATSVETAALLSKKALMRPIGSHNENERAASLEKMLEDGINKIGLGPQGMSGNTSVMGVNIENTARHPSTIGVAVNVGCWSHRKGHIVFDAALNYTITSHSGVNF”, the “soluble on expression in E. coli” value is recorded as “not soluble”. The value for “MAIKGLDQAIDNLSRVRKNAIPAASAMTINRVATTAINQSSSQVARETKVRRKLVKERSRLKRATVRNPNAKIIVNRGDLPVIKLGIRMLGRRPNSILKAGQHRYQRAFIQRLKNGRWHVMQRVAGKNRYPIDVVKIPMAAPLKQAFDENVDRIRCERLPGELASALKQQLRIAIKR” was “not soluble”; that for “MTNHIEYKKNQIIASSEIDDLIFMSAPQEWSLEEQKEIQDKLVREAFHFHYNRNEKYRNYCISQHINENLHSIDEIPVFPTSIFKHMKFHTVSMGDIENWHTSSGTQGIKSCIARDRLSIERLLGSVNFGMKYVGNWFEHQMELVNLGPDRFSASNVWFKYVMSLVELLYPTVFTVNNDKIDFEETVNHLYRINNSNKDICLIGPPFFVSLLCQYMKENNIEFKGENRLHVITGGGWKSNENSSLNRQDFNQLIMDTFQLDNVNQIRDTFNQVELNTCFFEDEFQRKHVPPWVYARALDPETLKPVADGELGLLSYMDASSTAYPAFIVTDDIGIVREIREPDPYPGVTVEIVRRLNTRAQKGCALSMASFIQSTILEHHHHHH” was “not soluble”; that for “MGSDKIHHHHHHMKTSKKWIAHFEANALHQRINWDLFPAITEAETASVLSSLQAWQLGETSDGAHLIHASTLYASHIGDLDYIDAVKLFIKEEQKHGNNLGRYLDVIDKPRIKKDWGDSLFRKIRYFNTNMEIWTLAVITVESAAQVFYQCLKNATECTLLRQICTDILIDEAYHIDFQTERMTILFNKKSVLSRCLSRIMYPVFFFSTSLLVWSAHKKLFKAGGIDFKKYMNKMKYKYFKTLHRIALVCSRKSTLIHSALH” was “not soluble”. The value for “MGSDKIHHHHHHMKESLISFIKEKIEEYNYRGAVVGVSGGVDSAVVLSLCVQALGKDRVFALILPERDSSKDSLKDAVDFCERLGVEYRKRSITPILRKIGVYRLFPPRLFLPDSIVKRYVLNRWNTLSKDPFLDDLRNTGPEEFLKGLAYYRIKHRIRMCLLYFEAEKRGYAVVGTTNRTEYLTGLYVKWGDEAVDIEPIMHLYKTQVFELAKEMNVPEKILKKPPSPDLIPGITDEMAFNMSYLELDRILMKLEKNEDLSDEDPKKVERVKKILELSEKYRRDIPITFDRI” was “not soluble”. The value for “MTEEIAGFQTSPKAQVQAAFEEIARRSMHALSFLHPSMPVYVSDFTLFEGQWTGCVITPWMLSAVIFPGPDQLWPLRKVSEKIGLQLPYGTMTFTVGELDGVSQYLSCSLMSPLSHSMSIEEGQRLTDDCARMILSLPVTNPDVPHAGRRALLFGRRSGENA” was “not soluble”; that for “MGSDKIHHHHHHMKHIGIIDVGSNSVRLLFAEITSKSSFKILTEFKEYVRLGSGFDSKGNITDNKIDSLISVLNLYKNFCNRFEDTEMVVTATEAFRRAKNQESIIQTVKNNLNLNIRVLSGEEEAYYDYFAAINTLDIKDGLIMDIGGSSTELILVANRTLKECVSLQFGAITLIEKFNIKDSIDEKQEKMLKDFLLESFSSIPWLKSISSTTLIGIGGSIRNIGKISKKQKDYPLNLIHNYIMPAKSAEDIYNDVKNKTLEQRKKIKGLSKDRADIFVGASLAVSMLVNILSINEIIICRNGLREGLLLSKLFHKKPIDNILDFSINNVLINNSINITHSFHVYKLTSLLFSSLQSVHKINISLDKVIKTASMFHNAGVNISYYYHHRHSAYIILNSSLYGISHKECVMSACIDIYQRSENIQSMLNEYGNMLEKEDIYAIKVIGILLRIAENLDKDLSGSIYDLKCIVDDAVVIIKTYSKEPSDFLISEAQNSSGLFKNTFNKSLYIV” was “not soluble”. For the sequence “MGSDKIHHHHHHMPIKVSPVAGSRFYIGSAPVDVPDTDVTEADFSAVTWIEVGQYETMGNSGDSAQGNTVNLLNRRRTYNWKGSRQAPQRSDNFALNTSDPGQLAMIAAEATDFNYPFKVELNGAPIPKSATAIITIASPGVVTWTGHNLAANTAVKFSTTGALPTGLTAGTSYYVKTVLDADTFTLSATKGGPVIATTGTQSGTHTATTIPSGPQRLFMGQVLAAEEGMGGANNAQMLNCTVLPNTNYVRVAALG”, the “soluble on expression in E. coli” value is given as “not soluble”. Turning to “MSKKQSSTPHDALFKLFLRQPETARDFLAFHLPAPIHALCDMKTLKLESRSFIDDDLRESYSDVLWSVKTEQGPGYIYCLIEHQSTSNKLIAFRMMRYAIAAMQNHLDAGYKTLPMVVPLLFYHGIESPYPYSLCWLDCFADPKLARQLYASAFPLIDVTVMPDDEIMQHRRMALLELIQKHIRQRDLMGLVEQMACLLSSGYANDRQIKGLFNYILQTGDAVRFNDFIDGVAERSPKHKESLMTIAERLRQEGEQSKALHIAKIMLESGVPLADIMRFTGLSEEELAAASRLAP”, the “soluble on expression in E. coli” value is “not soluble”. Turning to “AHHHHHHGSDLERALNAFHSMKVNQLTPPCSQMPIVEEDSPIIDVLKLLRTRHHVWVVNNRKDMKLVGIIRYLDIIDIFLPPKGARLGAVSSVFKSILSGAEKAGDIMERNFLTINEDATVLEALEKMKRYKIQILALIDEEGKLKGEISLRILINEFLRLIRVGGG”, the “soluble on expression in E. coli” value is recorded as “soluble”. The value for “MKITGVKAVFYSATGNTEEVVTAIAEKIAEKLGVSMEICNFTLPGGRTEVQTYAPSELVVFGTPVYAGRVPNKMLPVVQNNFKGEGALAVPVVTFGNRNFDNGLIELRNELENNGFHTIAGAGFAVSHVFSDKIAPGRPDEADREIMMRFAEAVAEKVEKMEEIPAPIEVRGEDPVGPYYTPLGTDGKPAVFLKAKPK” was “not soluble”; that for “MGSDKIHHHHHHMTEATYNFAYLDEQTKRMIRRAILKGIAIPGYQVPFASREMPMPYGWGTGGVQVTASILGPDDTLKVIDQGSDDTTNAISIRKFFAKTAGVATTTATPDASVIQTRHRIPETPLHEGQVLVYQVPIPEPLRYLEPRETETRRMHALAEYGLMHVKLYEDIAKFGHIATAYAYPVKVAGRYVMDPSPTPKFDNPKMDNCPALQLFGAGREKRIYAIPPYTQVVSLDFEDHPFTRYRQDGCCALCGADDSYLDEIVTDNAGTRMFVCSDTDYCEGRRAQGHTGSETAPMESAHA” was “not soluble”; that for “MKTVGVVLSGCGVLDGAEIHESVLTMLALDRAGAEVLFFAPDKPQLHVINHITGEIVAEERNVLVESARIARGLITPLSAADPEVLDALIVPGGFGAAKNLCDFAIKGGECSVEPDLYKLIQLMHKSGKPIGLMCISPVMLPKLLGKPIRLTIGNDPDTIDAIEIMGGEHVICPADDVVIDLENKVVTTPAYMLAGSISEAAKGIDKLVTKVLDLTE” was “not soluble”. The value for “SLKYEDINENTIKITLSFDDLTDYDIKLSDFFGNQEVIEQFFYELVDELGLENRFGNVGMLTFQIQPFPQGVHMIVHEEAMLGEGGEIPDDPEEFEELMTGFYNKLNEIGADMARERGITDFKPGLGLPGTKKDEAEQEPDFIYYSIRYEDIMSVLTGIKNVKFADEESEFYRYDGNFYLVVLDNQKEKGKMHVESTRSRMMEYGEATKMSREFLQEYGECLIATRALDVLRKI” was “soluble”; that for “MGSDKIHHHHHHMDRKMNFVMISPHFPANFETFAHRLYENGINTLGIADTPYEQLSQGLRDHLTEYYRVDNMEDYDQVYRAVAYFAHKYGRIDRIESHNEYWLELDAHLRTDFNVFGYKNEDMLSIKTKARMKEIFRKTGIKVARGRVFTSTEDARALTKELGFPVIIKPNSGVGASDTYKIKSAEELEDFFGYQNPTVDYIMEEFIDGDIVTFDGLTDHEGNIVFYSSLEYSEAVLDTVEKDNDMFYYVPRDISPELIKLGEQCVEAFNVKERFFHFEFFRIKKTKDLMALEVNCRPPGGLTIDMWDYANDFDVFNEYAHIVKDNRFEAHITRPYNVVYIARKANKHYAHSIEDIETKFGHHIIEIESVPGIFAKIMGEVGILARTETMNEMRDIICFAHAKI” was “not soluble”; that for “GSHMSPKIVDAGTATVPHTMSTMKTADNRPASVYLKKDKPTLIKFWASWCPLCLSELGQAEKWAQDAKFSSANLITVASPGFLHEKKDGEFQKWYAGLNYPKLPVVTDNGGTIAQNLNISVYPSWALIGKDGDVQRIVKGSINEAQALALIRNPNADLGSLKHS” was “soluble”. With “MSLHIHILGICGTFMGGVAMLARQLGHKVTGSDANVYPPMSTMLEAQGIEIIEGFDPVQLEPKPDLVVIGNAMSRGNPCVEYVLNHNLRYTSGPQWLQDFLLHDRWVIAVSGTHGKTTTSSMIAWVLEHCGYQPGFLVGGVLGNFGISARLGESMFFVVEADEYDSAFFDKRSKFVHYHPRTLVMNNLEFDHADIFDNLEAIKRQFHHLVRTVPGNGRILAPKQDEALADVLQRGCWSETEFSGEQGEWQAEKITADGSQFHVLLKGERVGQVNWSLVGDHNVSNALMAIAAARHVGVAPELACEALGLFVNTKRRLELKGEINGVTVYDDFAHHPTAIELTLGGLRNKVGDKKIIAVLEPRSATMKLGVHKETLAASLHSADSVYLYQPSNIPWSVEEVAKQCQQPAQVSANMDEFVAMIAKEAQAGDQILVMSNGGFEGIHGKLLAALQQKEGHHHHHH”, the “soluble on expression in E. coli” value is “soluble”. The value for “MSQNSDTFDSGLQMEVHKMAEADNSSVQQKFDAIRDYIGRKETTIILCEHDDSRKIKLTLNKQRMESSMFLTEMPDGGIQEKTKFHRNGLAVCSYNAFDEVDLPLADSYIFYGLPSNVEAFPRMLHGIEKSAHKENKIVFIDIVVSILEKIQIKVVSFELYNRKCTVPTWVAELVITYCAPIEEQQQRIEEIRRTRASVPVAISDAANGSAEMVPSNTTGSSGSPMSTAPVPAAKKEKVQYESIRQIRPNAQGRYFVPARMINMDIEMSNDEYSPDESENDENEYDYENAARYDDGYDEGHEYCQ” was “not soluble”. The value for “RDSGTVWGALGHGINLNIPNFQMTDDIDEVRWERGSTLVAEFKRKMKPFLKSGAFEILANGDLKIKNLTRDDSGTYNVTVYSTNGTRILDKALDLRILE” was “soluble”.
